Source: patent US20080045469A1 (published 2008)

Experiments:
[1] = molecular target: T1, human VEGF165 expressed in transduced LLC cells (human), P15692; test: sandwich ELISA of conditioned medium of hVEGF-LLC cells, homodimer format; settings: remark: other sources report otherwise
T1 chain: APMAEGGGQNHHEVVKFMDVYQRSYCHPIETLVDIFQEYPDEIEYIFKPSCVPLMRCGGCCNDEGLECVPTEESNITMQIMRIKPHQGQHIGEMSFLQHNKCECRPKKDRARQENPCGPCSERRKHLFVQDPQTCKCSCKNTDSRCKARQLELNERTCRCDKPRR

[2] = molecular target: the molecule itself; test: sandwich ELISA of cell lysates and conditioned media of hPLGF-1-KDEL-LLC cells
Source text: To quantify the amounts of intracellular and extracellular dimeric molecules, a sensitive sandwich ELISA assay was used to analyze cell lysates and conditioned media from transduced and non-transduced LLC cell lines. Specific antibodies were used against each factor, either two antibodies against the same factor but raised in different species (homodimers) or two antibodies against different factors (heterodimers). As expected, a high level of mVEGF homodimers was detected in conditioned media from controls, wt LLC and vector-transduced LLC cells (Table 1).

[3] = molecular target: recombinant human VEGF165 monomer (E. coli) (human, UniProt P15692-4 27-191); test: in vitro reduction and refolding of E. coli proteins
Description: Recombinant human PLGF-1 (SEQ ID NO: 1) and VEGF₁ monomers were expressed in E. Coli as previously described⁴⁴. An equimolar of mixture of PLGF-1- and VEGF₁ homodimers, at a total protein concentration of 0.5 mg/ml, was incubated in reducing buffer (20 mM Tris-HC1, pH 8.0, 6 M guanidine-HC1, and 10 mM DTT) at 4° C. over night. The following day the protein solution was dialyzed against 10 volumes of refolding buffer (2 M urea, 20 mM Tris-HC1, pH 8.0, 2 mM GSH (glutathione-SH) and 0.5 mM GSSG (glutathione-S-S-glutathione)). Using this refolding protocol, a mixture of homodimeric PLGF-1 and VEGF₁ as well as heterodimeric PLGF-1/VEGF was generated.

B1: human VEGF165 expressed in transduced LLC cells, P15692 27-191 (ligand, UniProt P15692-4 27-191, looked up)
chain: T1 chain
homodimer concentration in conditioned medium [1]: 41900 pg/mL

B2: human PLGF-1 with C-terminal KDEL ER-retention signal (ligand)
chain: LPAVPPQQWALSAGNGSSEVEVVPFQEVWGRSYCRALERLVDVVSEYPSEVEHMFSPSCVSLLRCTGCCGDENLHCVPVETANVTMQLLKIRSGDRPSYVELTFSQHVRCECRPLREKMKPERCGDAVPRRKDEL
notes: Expressed in transduced LLC cells; also called hPLGF-1-KDEL; PLGF-1-KDEL
binding result [2]: binds

B3: recombinant human PLGF-1 monomer (E. coli) (ligand)
chain: LPAVPPQQWALSAGNGSSEVEVVPFQEVWGRSYCRALERLVDVVSEYPSEVEHMFSPSCVSLLRCTGCCGDENLHCVPVETANVTMQLLKIRSGDRPSYVELTFSQHVRCECRPLREKMKPERCGDAVPRR
binding result [3]: binds
